T1: CD20 (B-lymphocyte antigen CD20) on CD20+ human lymphoma cells (Raji, SU-DHL-7) (human, UniProt P11836 1-297)
T1 sequence (looked up): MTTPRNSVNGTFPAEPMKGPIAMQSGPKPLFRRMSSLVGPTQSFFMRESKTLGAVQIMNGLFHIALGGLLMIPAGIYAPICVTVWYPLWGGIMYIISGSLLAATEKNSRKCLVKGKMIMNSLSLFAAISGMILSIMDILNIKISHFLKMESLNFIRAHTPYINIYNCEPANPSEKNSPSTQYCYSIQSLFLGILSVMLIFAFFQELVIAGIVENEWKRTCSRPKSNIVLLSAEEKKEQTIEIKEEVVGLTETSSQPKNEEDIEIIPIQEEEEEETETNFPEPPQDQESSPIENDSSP

B1: Rituximab (antibody, V domains shown)
VH: QVQLQQPGAELVKPGASVKMSCKASGYTFTSYNMHWVKQTPGRGLEWIGAIYPGNGDTSYNQKFKGKATLTADKSSSTAYMQLSSLTSEDSAVYYCARSTYYGGDWYFNVWGAGTTVTVSA
VL: QIVLSQSPAILSASPGEKVTMTCRASSSVSYIHWFQQKPGSSPKPWIYATSNLASGVPVRFSGSGSGTSYSLTISRVEAEDAATYYCQQWTSNPPTFGGGTKLEIK
B2: scFv A192 (anti-CD20 scFv-G(VPGAG)192Y fusion) (scFv)
scFv: QVQLQQPGAELVKPGASVKMSCKASGYTFTSYNMHWVKQTPGRGLEWIGAIYPGNGDTSYNQKFKGKATLTADKSSSTAYMQLSSLTSEDSAVYYCARSTYYGGDWYFNVWGAGTTVTVSAGGGGSGGGGSGGGGSQIVLSQSPAILSASPGEKVTMTCRASSSVSYIHWFQQKPGSSPKPWIYATSNLASGVPVRFSGSGSGTSYSLTISRVEAEDAATYYCQQWTSNPPTFGGGTKLEIKRTGVPGAGVPGAGVPGAGVPGAGVPGAGVPGAGVPGAGVPGAGVPGAGVPGAGVPGAGVPGAGVPGAGVPGAGVPGAGVPGAGVPGAGVPGAGVPGAGVPGAGVPGAGVPGAGVPGAGVPGAGVPGAGVPGAGVPGAGVPGAGVPGAGVPGAGVPGAGVPGAGVPGAGVPGAGVPGAGVPGAGVPGAGVPGAGVPGAGVPGAGVPGAGVPGAGVPGAGVPGAGVPGAGVPGAGVPGAGVPGAGVPGAGVPGAGVPGAGVPGAGVPGAGVPGAGVPGAGVPGAGVPGAGVPGAGVPGAGVPGAGVPGAGVPGAGVPGAGVPGAGVPGAGVPGAGVPGAGVPGAGVPGAGVPGAGVPGAGVPGAGVPGAGVPGAGVPGAGVPGAGVPGAGVPGAGVPGAGVPGAGVPGAGVPGAGVPGAGVPGAGVPGAGVPGAGVPGAGVPGAGVPGAGVPGAGVPGAGVPGAGVPGAGVPGAGVPGAGVPGAGVPGAGVPGAGVPGAGVPGAGVPGAGVPGAGVPGAGVPGAGVPGAGVPGAGVPGAGVPGAGVPGAGVPGAGVPGAGVPGAGVPGAGVPGAGVPGAGVPGAGVPGAGVPGAGVPGAGVPGAGVPGAGVPGAGVPGAGVPGAGVPGAGVPGAGVPGAGVPGAGVPGAGVPGAGVPGAGVPGAGVPGAGVPGAGVPGAGVPGAGVPGAGVPGAGVPGAGVPGAGVPGAGVPGAGVPGAGVPGAGVPGAGVPGAGVPGAGVPGAGVPGAGVPGAGVPGAGVPGAGVPGAGVPGAGVPGAGVPGAGVPGAGVPGAGVPGAGVPGAGVPGAGVPGAGVPGAGVPGAGVPGAGVPGAGVPGAGVPGAGVPGAGVPGAGVPGAGVPGAGVPGAGVPGAGVPGAGVPGAGVPGAGVPGAGVPGAGVPGAGVPGAGVPGAGVPGAGVPGAGVPGAGVPGAGVPGAGVPGAGVPGAGVPGAGVPGAGVPGAGY
modifications: rhodamine (RHD) labeled in the confocal binding assays; site of the label not stated

Target: T1, CD20 (B-lymphocyte antigen CD20) on …
Assay: cell-based or functional assay

Row | Binder | IC50, cell viability (MTS/PMS), SU-DHL-7 cells [µM] | IC50, cell viability (MTS/PMS), Raji cells [µM] | IC50, cell viability, SU-DHL-7 cells (figure legend; differs from the text) [µM]
1 | B1 | 4 |  | 
2 | B2 | 41 | 32 | 4
